Data from patent publication US20250043002A1 (Regeneron, published 2025).

B1: mAb14226 (antibody, V domains shown)
VH: QVQLQESGPGLVKPSETLSLTCTVSGGSISSYYWSWIRQPPGKGLEWIGYIYYSGITHYNPSLKSRVTISVDTSKIQFSLKLSSVTAADTAVYYCARWGVRRDYYYYGMDVWGQGTTVTVSS
VL: not shown
notes: Bivalent parental antibody; also called parental bivalent anti-CD28 antibody; CD28 bivalent control antibody
B2: REGN6194 (bispecific antibody, human IgG4 S228P, kappa)
heavy 1: QVQLVQSGTEVKKPGASVKVSCKASGYTFTAYYMHWVRQAPGQGLDWMGWISPNSGFTNYAQKFQGRVTMTRDTSINTFYMELSGLRSDDTAVYYCAREGSTHHNSFDPWGQGTLVTVSSASTKGPSVFPLAPCSRSTSESTAALGCLVKDYFPEPVTVSWNSGALTSGVHTFPAVLQSSGLYSLSSVVTVPSSSLGTKTYTCNVDHKPSNTKVDKRVESKYGPPCPPCPAPPVAGPSVFLFPPKPKDTLMISRTPEVTCVVVDVSQEDPEVQFNWYVDGVEVHNAKTKPREEQFNSTYRVVSVLTVLHQDWLNGKEYKCKVSNKGLPSSIEKTISKAKGQPREPQVYTLPPSQEEMTKNQVSLTCLVKGFYPSDIAVEWESNGQPENNYKTTPPVLDSDGSFFLYSRLTVDKSRWQEGNVFSCSVMHEALHNHYTQKSLSLSLGK
heavy 2: QVQLQESGPGLVKPSETLSLTCTVSGGSISSYYWSWIRQPPGKGLEWIGYIYYSGITHYNPSLKSRVTISVDTSKIQFSLKLSSVTAADTAVYYCARWGVRRDYYYYGMDVWGQGTTVTVSSASTKGPSVFPLAPCSRSTSESTAALGCLVKDYFPEPVTVSWNSGALTSGVHTFPAVLQSSGLYSLSSVVTVPSSSLGTKTYTCNVDHKPSNTKVDKRVESKYGPPCPPCPAPPVAGPSVFLFPPKPKDTLMISRTPEVTCVVVDVSQEDPEVQFNWYVDGVEVHNAKTKPREEQFNSTYRVVSVLTVLHQDWLNGKEYKCKVSNKGLPSSIEKTISKAKGQPREPQVYTLPPSQEEMTKNQVSLTCLVKGFYPSDIAVEWESNGQPENNYKTTPPVLDSDGSFFLYSRLTVDKSRWQEGNVFSCSVMHEALHNRFTQKSLSLSPGK
light: not shown
notes: also called PD-L1×CD28; anti-PD-L1 × anti-CD28 bispecific antibody
B3: mAb14193 (antibody, V domains shown)
VH: EVQLVESGGGLVQPGGSLRLSCAASGFTFSTYAMTWVRQAPGKGLEWVSFISGSGDNTYYADSVKGRFTISRDNSKNTLYLQMNSLRADDSAIYHCAKDSGYCSSGGCSLYFYYGMDVWGQGTTVTVSS
VL: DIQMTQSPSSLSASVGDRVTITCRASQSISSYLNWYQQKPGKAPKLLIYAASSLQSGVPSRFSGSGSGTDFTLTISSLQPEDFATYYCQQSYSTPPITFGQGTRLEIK
notes: as for B1
B4: mAb14216 (antibody, V domains shown)
VH: EVQLVESGGGLVQPGGSLRLSCAASGFTFSRNNMHWVRQAPGKGLEYVSGISSNGGRTYYADSVKGRFTISRDNSKNTLYLQMGGLRAADMAVYFCTRDDELLSFDYWGQGTLVTVSS
VL: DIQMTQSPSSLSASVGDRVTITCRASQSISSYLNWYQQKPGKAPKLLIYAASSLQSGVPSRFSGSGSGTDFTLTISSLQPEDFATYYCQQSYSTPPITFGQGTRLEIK
notes: as for B1
B5: REGN6192 (bispecific antibody, human IgG4 S228P, kappa)
heavy 1: EVQLVESGGGLVQPGRSLRLSCAASGFTFDDYALHWVRQAPGKGLEWVSGISWTGGTIDYADSVKGRFTISRDNAKNSLYLQMSSLRTEDTAIYYCTRDIRGNWKYGGWFDPWGQGTLVTVSSASTKGPSVFPLAPCSRSTSESTAALGCLVKDYFPEPVTVSWNSGALTSGVHTFPAVLQSSGLYSLSSVVTVPSSSLGTKTYTCNVDHKPSNTKVDKRVESKYGPPCPPCPAPPVAGPSVFLFPPKPKDTLMISRTPEVTCVVVDVSQEDPEVQFNWYVDGVEVHNAKTKPREEQFNSTYRVVSVLTVLHQDWLNGKEYKCKVSNKGLPSSIEKTISKAKGQPREPQVYTLPPSQEEMTKNQVSLTCLVKGFYPSDIAVEWESNGQPENNYKTTPPVLDSDGSFFLYSRLTVDKSRWQEGNVFSCSVMHEALHNHYTQKSLSLSLGK
heavy 2: EVQLVESGGGLVQPGGSLRLSCAASGFTFSTYAMTWVRQAPGKGLEWVSFISGSGDNTYYADSVKGRFTISRDNSKNTLYLQMNSLRADDSAIYHCAKDSGYCSSGGCSLYFYYGMDVWGQGTTVTVSSASTKGPSVFPLAPCSRSTSESTAALGCLVKDYFPEPVTVSWNSGALTSGVHTFPAVLQSSGLYSLSSVVTVPSSSLGTKTYTCNVDHKPSNTKVDKRVESKYGPPCPPCPAPPVAGPSVFLFPPKPKDTLMISRTPEVTCVVVDVSQEDPEVQFNWYVDGVEVHNAKTKPREEQFNSTYRVVSVLTVLHQDWLNGKEYKCKVSNKGLPSSIEKTISKAKGQPREPQVYTLPPSQEEMTKNQVSLTCLVKGFYPSDIAVEWESNGQPENNYKTTPPVLDSDGSFFLYSRLTVDKSRWQEGNVFSCSVMHEALHNRFTQKSLSLSPGK
light: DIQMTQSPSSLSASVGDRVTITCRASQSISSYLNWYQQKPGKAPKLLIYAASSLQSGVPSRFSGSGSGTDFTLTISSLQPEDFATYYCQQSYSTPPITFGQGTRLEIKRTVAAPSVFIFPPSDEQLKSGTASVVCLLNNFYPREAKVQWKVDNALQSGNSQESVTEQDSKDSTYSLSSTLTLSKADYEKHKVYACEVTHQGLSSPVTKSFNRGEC
notes: common light chain 1-39; also called PD-L1×CD28; anti-PD-L1 × anti-CD28 bispecific antibody

Columns and labels:
[1] = biological target: T1, human CD28 on cells (endogenous on Jurkat/NFkB-Luc cells; human primary CD4+ T cells) (human, UniProt P10747 19-220); assay: cell-based or functional assay
[2] = biological target: T1, human CD28 on cells (endogenous on …); assay: flow cytometry, Jurkat/NFkB-Luc cells (endogenous CD28)
[3] = biological target: T1, human CD28 on cells (endogenous on …); assay: cell-based or functional assay; remark: listed apart in the source
[4] = biological target: human CD28 expressed with a C-terminal murine Fc tag (hCD28.mFc) (human); assay: SPR Biacore 25 C, hCD28.mFc captured by anti-mFc, antibody injected
[5] = biological target: T2, hPD-L1-mFc: hPD-L1 extracellular domain (amino acids F19-T239) expressed with the Fc portion of mouse IgG2a … (human; mouse, UniProt Q9NZQ7 19-239); assay: blocking ELISA, 0.7 nM hPD-L1-mFc on plate-coated hPD1-hFc
T2 construct: range 19-239; not shown: Fc portion of mouse IgG2a, amino acids E98-K330
T2 sequence (Q9NZQ7 19-239 limits assumed): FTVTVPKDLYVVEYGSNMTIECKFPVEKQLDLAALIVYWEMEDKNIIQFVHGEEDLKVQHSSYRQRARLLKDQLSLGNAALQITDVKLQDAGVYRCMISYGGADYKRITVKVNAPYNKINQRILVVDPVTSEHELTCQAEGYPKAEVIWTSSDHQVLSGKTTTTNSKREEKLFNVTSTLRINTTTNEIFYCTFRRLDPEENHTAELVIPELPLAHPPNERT

[6] = biological target: T3, human PD-L1 expressed on cells (HEK293/hCD20/hPSMA/hPD-L1; WSU-DLCL2/hPD-L1) (human, UniProt Q9NZQ7 19-290); assay: flow cytometry, HEK293/hCD20/hPSMA/hPD-L1 cells
T3 construct: whole, on cells; also called human programmed death ligand-1
T3 sequence (Q9NZQ7 19-290): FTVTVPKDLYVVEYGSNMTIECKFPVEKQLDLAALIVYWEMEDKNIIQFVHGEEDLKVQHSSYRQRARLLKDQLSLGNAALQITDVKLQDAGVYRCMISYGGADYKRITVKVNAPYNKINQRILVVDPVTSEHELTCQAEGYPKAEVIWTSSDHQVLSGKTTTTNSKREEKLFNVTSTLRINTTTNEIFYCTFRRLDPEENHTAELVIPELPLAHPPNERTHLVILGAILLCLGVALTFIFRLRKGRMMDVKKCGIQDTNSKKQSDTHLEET

[7] = biological target: T3, human PD-L1 expressed on cells …; assay: cell-based or functional assay
[8] = biological target: human PD-L1 expressed with a C-terminal myc-myc-hexahistidine tag (hPD-L1.mmH) (human); assay: SPR Biacore 25 C, antibody captured by anti-hFc, hPD-L1.mmH injected
Sequence of human PD-L1 expressed with a C-terminal myc-myc-hexahistidine tag (hPD-L1.mmH) (human) (chain, as listed by the source limits assumed): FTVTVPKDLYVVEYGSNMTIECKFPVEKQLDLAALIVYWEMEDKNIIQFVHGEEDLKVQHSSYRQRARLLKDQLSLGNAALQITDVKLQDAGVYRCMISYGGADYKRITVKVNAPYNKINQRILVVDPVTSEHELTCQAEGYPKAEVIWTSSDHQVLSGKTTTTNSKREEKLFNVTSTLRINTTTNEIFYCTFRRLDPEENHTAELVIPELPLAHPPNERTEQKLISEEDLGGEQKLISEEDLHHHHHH

Row | Binder | IL2 release EC50, CD4+ T cells + HEK293/hCD20/hPSMA + CD20×CD3 [1] | IL2 release EC50, CD4+ T cells + HEK293/hCD20/hPSMA/hPD-L1 + CD20×CD3 [1] | IL2 release MAX (RLU), CD4+ T cells + HEK293/hCD20/hPSMA [1] | IL2 release MAX (RLU), CD4+ T cells + HEK293/hCD20/hPSMA + CD20×CD3 [1] | IL2 release MAX (RLU), CD4+ T cells + HEK293/hCD20/hPSMA/hPD-L1 [1] | IL2 release MAX (RLU), CD4+ T cells + HEK293/hCD20/hPSMA/hPD-L1 + CD20×CD3 [1] | EC50 [2] | Fold Change (max MFI over secondary antibody alone) [2] | Max gMFI [2] | NFkB-luciferase EC50, Jurkat/NFkB-Luc + HEK293/hCD20/hPSMA/hPD-L1 + CD20×CD3 [3] | NFkB-luciferase MAX (RLU), Jurkat/NFkB-Luc + HEK293/hCD20/hPSMA [3] | NFkB-luciferase MAX (RLU), Jurkat/NFkB-Luc + HEK293/hCD20/hPSMA + CD20×CD3 [3] | NFkB-luciferase MAX (RLU), Jurkat/NFkB-Luc + HEK293/hCD20/hPSMA/hPD-L1 [3] | NFkB-luciferase MAX (RLU), Jurkat/NFkB-Luc + HEK293/hCD20/hPSMA/hPD-L1 + CD20×CD3 [3] | 90 nM mAb Bind (RU) [4] | Kd [4] | koff [4] | % Blocking at 100 nM mAb [5] | Fold Change (max MFI over secondary antibody alone) [6] | Max gMFI [6] | other results
1 | B1 | 0.116 nM | 2.67 nM | 2910 RLU | 64400 RLU | 2860 RLU | 38800 RLU | 0.73 nM | 101 fold | 43000 gMFI | 0.0875 nM | 73200 RLU | 649000 RLU | 60800 RLU | 596000 RLU |  |  |  |  |  |  | NFkB-luciferase EC50, Jurkat/NFkB-Luc + HEK293/hCD20/hPSMA [3]: 5.69 nM; NFkB-luciferase EC50, Jurkat/NFkB-Luc + HEK293/hCD20/hPSMA + CD20×CD3 [3]: 0.0514 nM
2 | B2 |  |  | 5480 RLU | 33700 RLU | 2870 RLU | 165000 RLU | 7.5 nM | 90.4 fold | 28000 gMFI | 0.028 nM | 11400 RLU | 425000 RLU | 16700 RLU | 3.6e+06 RLU | 39.4 RU | 24.5 nM | 0.00326 s⁻¹ |  |  |  | kon [4]: 133000 M⁻¹ s⁻¹; t1/2 [4]: 3.5 min
3 | B3 | 24.9 nM |  | 3110 RLU | 33600 RLU | 3070 RLU | 4720 RLU | 21 nM | 42.5 fold | 18000 gMFI |  |  |  |  |  |  |  |  | 6% | 3 fold | 4700 gMFI | binding result [6]: no binding
4 | B4 | 9.54 nM |  | 3040 RLU | 25600 RLU | 2860 RLU | 3620 RLU | 9.3 nM | 60.3 fold | 25000 gMFI |  |  |  |  |  |  |  |  | 1% | 1.2 fold | 1800 gMFI | binding result [6]: no binding
5 | B5 | 16.4 nM | 0.104 nM | 3870 RLU | 25200 RLU | 2690 RLU | 144000 RLU |  | 24.1 fold | 10000 gMFI | 0.243 nM | 17200 RLU | 444000 RLU | 110000 RLU | 2.32e+06 RLU | 15.4 RU | 13.2 nM | 0.000342 s⁻¹ | 97% | 876 fold | 1.4e+06 gMFI | kon [4]: 25900 M⁻¹ s⁻¹; t1/2 [4]: 33.8 min; AP-1 luciferase EC50, WSU-DLCL2/hPD-L1 + Jurkat/AP1-Luc/hPD1 [7]: 0.183 nM; AP-1 luciferase MAX (RLU), WSU-DLCL2/hPD-L1 + Jurkat/AP1-Luc/hPD1 [7]: 1.19e+06 RLU; 30 nM hPD-L1.mmH Bind (RU) [8]: 34.9 RU; Kd [8]: 0.103 nM; koff [8]: 6.18e-05 s⁻¹; kon [8]: 600000 M⁻¹ s⁻¹; t1/2 [8]: 187 min; IC50 [5]: 1.2 nM; EC50 [6]: 2.5 nM
